The target in the assay is T1, HLA-DR1 (Homo sapiens, UniProt P01903+P01911, A100R/D57E/F55L/F60I/F76Y/I96L/L162R/M171V/P40L/Q125E/R42F/V115G/Y59C).
T1 construct: made in house; host or cells: Sf9 insect cells
Nature of the assay: Competition of synthetic peptides against 125I-labeled HA 307-319 for binding to empty HLA-DR1 (Ki).

Ends that are not written are not given here. Where only a bound is given, the exact number is not on record here.

Take “KMRMATPLLMQALP (MRMATPLLMQALPM) [Ii 107-120, invariant chain peptide named in b65]”: where the note is “competition against HA peptide, empty DR1, first approximation”, the “relative binding affinity to DR1 among competitor peptides” value is given as “highest affinity of all the competitor peptides measured”.
For orientation: Ki means a measure of affinity in units of concentration, obtained from inhibition or displacement. For the sequence KMRMATPLLMQALPM [Ii 106-120], where the note is “read-out: Ki vs HA 307-319, concentration inhibiting 50% of 125I-labeled HA 307-319 binding, 10 nM labeled peptide, 10 nM empty HLA-DR1 from Sf9 insect cells, pH 7.2, 37° C., 85 hours”, the inhibitory constant (Ki) was less than 10 nM.
